Experimental data taken from the Human Domainome abundance scans (Beltran et al. 2025).
± gives the uncertainty stated by the source.

B1: POU domain, class 3, transcription factor 2, residues 356 to 411; numbered along this chain, P20265 (parent)
chain: KKRTSIEVSVKGALESHFLKCPKPSAQEITSLADSLQLEKEVVRVWFCNRRQKEKR

Variants of: B1
Test: abundance fitness (aPCA) (normalised: wild type 0, dead -1); higher = more abundant; growth selection in yeast, the domain comes from the species named
Conditions: Homo sapiens

| Variant | abundance fitness |
| --- | --- |
| KKRTSIEVSVKGALESHFLKCPKPSAQEITSLADSLQLEKEVVRVMFCNRRQKEKR [W46M] | -0.922 ± 0.14 |
| KKRTSIEVSVKGALESHFLKCPKPSAQEITSLADSLQLEKEVVRVEFCNRRQKEKR [W46E] | -0.946 ± 0.17 |
| KKRTSIEVSVKGALESHFLKCPKPSAQEITSLADSLQLEKEVVRVRFCNRRQKEKR [W46R] | -0.805 ± 0.084 |
| KKRTSIEVSVKGALESHFLKCPKPSAQEITSLADSLQLEKEVVRVCFCNRRQKEKR [W46C] | -0.826 ± 0.35 |
| KKRTSIEVSVKGALESHFLKCPKPSAQEITSLADSLQLEKEVVRVTFCNRRQKEKR [W46T] | -0.958 ± 0.17 |
| KKRTSIEVSVKGALESHFLKCPKPSAQEITSLADSLQLEKEVVRVIFCNRRQKEKR [W46I] | -0.932 ± 0.19 |
| KKRTSIEVSVKGALESHFLKCPKPSAQEITSLADSLQLEKEVVRVFFCNRRQKEKR [W46F] | -0.393 ± 0.15 |
| KKRTSIEVSVKGALESHFLKCPKPSAQEITSLADSLQLEKEVVRVPFCNRRQKEKR [W46P] | -0.986 ± 0.15 |
| KKRTSIEVSVKGALESHFLKCPKPSAQEITSLADSLQLEKEVVRVGFCNRRQKEKR [W46G] | -0.92 ± 0.1 |
| KKRTSIEVSVKGALESHFLKCPKPSAQEITSLADSLQLEKEVVRVDFCNRRQKEKR [W46D] | -0.318 ± 0.38 |
| KKRTSIEVSVKGALESHFLKCPKPSAQEITSLADSLQLEKEVVRPWFCNRRQKEKR [V45P] | -0.784 ± 0.13 |
| KKRTSIEVSVKGALESHFLKCPKPSAQEITSLADSLQLEKEVVRFWFCNRRQKEKR [V45F] | -0.175 ± 0.094 |
| KKRTSIEVSVKGALESHFLKCPKPSAQEITSLADSLQLEKEVVRSWFCNRRQKEKR [V45S] | 0.097 ± 0.076 |
| KKRTSIEVSVKGALESHFLKCPKPSAQEITSLADSLQLEKEVVRQWFCNRRQKEKR [V45Q] | 0.061 ± 0.11 |
| KKRTSIEVSVKGALESHFLKCPKPSAQEITSLADSLQLEKEVVRHWFCNRRQKEKR [V45H] | 0.089 ± 0.12 |
| KKRTSIEVSVKGALESHFLKCPKPSAQEITSLADSLQLEKEVVRIWFCNRRQKEKR [V45I] | 0.01 ± 0.12 |
| KKRTSIEVSVKGALESHFLKCPKPSAQEITSLADSLQLEKEVVRDWFCNRRQKEKR [V45D] | 0.07 ± 0.078 |
| KKRTSIEVSVKGALESHFLKCPKPSAQEITSLADSLQLEKEVVRMWFCNRRQKEKR [V45M] | -0.101 ± 0.18 |
| KKRTSIEVSVKGALESHFLKCPKPSAQEITSLADSLQLEKEVVRCWFCNRRQKEKR [V45C] | -0.294 ± 0.12 |
| KKRTSIEVSVKGALESHFLKCPKPSAQEITSLADSLQLEKEVVRGWFCNRRQKEKR [V45G] | -0.048 ± 0.092 |
| KKRTSIEVSVKGALESHFLKCPKPSAQEITSLADSLQLEKEVVRNWFCNRRQKEKR [V45N] | -0.006 ± 0.11 |
| KKRTSIEVSVKGALESHFLKCPKPSAQEITSLADSLQLEKEVVRKWFCNRRQKEKR [V45K] | -0.057 ± 0.1 |
| KKRTSIEVSVKGALESHFLKCPKPSAQEITSLADSLQLEKEVVRWWFCNRRQKEKR [V45W] | -0.038 ± 0.14 |
| KKRTSIEVSVKGALESHFLKCPKPSAQEITSLADSLQLEKEVVRRWFCNRRQKEKR [V45R] | -0.293 ± 0.09 |

| Variant | abundance fitness |
| --- | --- |
| KKRTSIEVSVKGALESHFLKCPKPSAQEITSLADSLQLEKEVVRYWFCNRRQKEKR [V45Y] | -0.152 ± 0.11 |
| KKRTSIEVSVKGALESHFLKCPKPSAQEITSLADSLQLEKEVVRLWFCNRRQKEKR [V45L] | -0.033 ± 0.084 |
| KKRTSIEVSVKGALESHFLKCPKPSAQEITSLADSLQLEKEVVRTWFCNRRQKEKR [V45T] | 0.001 ± 0.088 |
| KKRTSIEVSVKGALESHFLKCPKPSAQEITSLADSLQLEKEVHRVWFCNRRQKEKR [V43H] | -0.938 ± 0.2 |
| KKRTSIEVSVKGALESHFLKCPKPSAQEITSLADSLQLEKEVKRVWFCNRRQKEKR [V43K] | -0.909 ± 0.3 |
| KKRTSIEVSVKGALESHFLKCPKPSAQEITSLADSLQLEKEVSRVWFCNRRQKEKR [V43S] | -0.985 ± 0.14 |
| KKRTSIEVSVKGALESHFLKCPKPSAQEITSLADSLQLEKEVYRVWFCNRRQKEKR [V43Y] | -0.955 ± 0.2 |
| KKRTSIEVSVKGALESHFLKCPKPSAQEITSLADSLQLEKEVPRVWFCNRRQKEKR [V43P] | -0.891 ± 0.17 |
| KKRTSIEVSVKGALESHFLKCPKPSAQEITSLADSLQLEKEVQRVWFCNRRQKEKR [V43Q] | -0.877 ± 0.19 |
| KKRTSIEVSVKGALESHFLKCPKPSAQEITSLADSLQLEKEVLRVWFCNRRQKEKR [V43L] | -0.361 ± 0.068 |
| KKRTSIEVSVKGALESHFLKCPKPSAQEITSLADSLQLEKEVRRVWFCNRRQKEKR [V43R] | -0.95 ± 0.11 |
| KKRTSIEVSVKGALESHFLKCPKPSAQEITSLADSLQLEKEVDRVWFCNRRQKEKR [V43D] | -0.958 ± 0.19 |
| KKRTSIEVSVKGALESHFLKCPKPSAQEITSLADSLQLEKEVNRVWFCNRRQKEKR [V43N] | -0.889 ± 0.34 |
| KKRTSIEVSVKGALESHFLKCPKPSAQEITSLADSLQLEKEVGRVWFCNRRQKEKR [V43G] | -0.906 ± 0.12 |
| KKRTSIEVSVKGALESHFLKCPKPSAQEITSLADSLQLEKEVMRVWFCNRRQKEKR [V43M] | -0.944 ± 0.16 |
| KKRTSIEVSVKGALESHFLKCPKPSAQEITSLADSLQLEKEVWRVWFCNRRQKEKR [V43W] | -0.793 ± 0.16 |
| KKRTSIEVSVKGALESHFLKCPKPSAQEITSLADSLQLEKEVCRVWFCNRRQKEKR [V43C] | -0.547 ± 0.15 |
| KKRTSIEVSVKGALESHFLKCPKPSAQEITSLADSLQLEKEVIRVWFCNRRQKEKR [V43I] | -0.197 ± 0.12 |
| KKRTSIEVSVKGALESHFLKCPKPSAQEITSLADSLQLEKEVTRVWFCNRRQKEKR [V43T] | -0.841 ± 0.12 |
| KKRTSIEVSVKGALESHFLKCPKPSAQEITSLADSLQLEKEVERVWFCNRRQKEKR [V43E] | -1.01 ± 0.17 |
| KKRTSIEVSVKGALESHFLKCPKPSAQEITSLADSLQLEKEVARVWFCNRRQKEKR [V43A] | -0.615 ± 0.089 |
| KKRTSIEVSVKGALESHFLKCPKPSAQEITSLADSLQLEKEVVRVWFDNRRQKEKR [C48D] | -0.053 ± 0.14 |
| KKRTSIEVSVKGALESHFLKCPKPSAQEITSLADSLQLEKEVVRVWFANRRQKEKR [C48A] | -0.096 ± 0.1 |
